The source of these data is patent US20080119430.

For this data set, the target named is Rho (active Rho-GTP, endogenous in HUVECs).

B1: BNO69 (endogenous protein in HUVECs, knocked down by adenoviral antisense BNO69R) (protein)
chain: MPEDRNSGGCPAGALASTPFIPKTTYRRIKRCFSFRKGIFGQKLEDTVRYEKRYGNRLAPMLVEQCVDFIRQRGLKEEGLFRLPGQANLVKELQDAFDCGEKPSFDSNTDVHTVASLLKLYLRELPEPVIPYAKYEDFLSCAKLLSKEEEAGVKELAKQVKSLPVVNYNLLKYICRFLDEVQSYSGVNKMSVQNLATVFGPNILRPKVEDPLTIMEGTVVVQQLMSVMISKHDCLFPKDAELQSKPQDGVSNNNEIQKKATMGLLQNKENNNTKDSPSRQCSWDKSESPQRSSMNNGSPTALSGSKTNSPKNSVHKLDVSRSPPLMVKKNPAFNKGSGIVTNGSFSSSNAEGLEKTQTTPNGSLQARRSSSLKVSGTKMGTHSVQNGTVRMGILNSDTLGNPTNVRNMSWLPNGYVTLRDNKQKEQAGELGQHNRLSTYDNVHQQFSMMNLDDKQSIDSATWSTSSCEISLPENSNSCRSSTTTCPEQDFFGGNFEDPVLDGPPQDDLSHPRDYESKSDHRSVGGRSSRATSSSDNSETFVGNSSSNHSALHSLVSSLKQEMTKQKIEYESRIKSLEQRNLTLETEMMSLHDELDQERKKFTMIEIKMRNAERAKEDAEKRNDMLQKEMEQFFSTFGELTVEPRRTERGNTIWIQ
On to B1, for which the “fold increase in Rho activity (active Rho-GTP) in HUVECs after BNO69 knockdown with BNO69R, compared to empty vector” value is 3.1±0.5 fold increase in Rho activity with BNO69R.

B2: BNO69 mutant (R82A) (protein)
chain: MPEDRNSGGCPAGALASTPFIPKTTYRRIKRCFSFRKGIFGQKLEDTVRYEKRYGNRLAPMLVEQCVDFIRQRGLKEEGLFALPGQANLVKELQDAFDCGEKPSFDSNTDVHTVASLLKLYLRELPEPVIPYAKYEDFLSCAKLLSKEEEAGVKELAKQVKSLPVVNYNLLKYICRFLDEVQSYSGVNKMSVQNLATVFGPNILRPKVEDPLTIMEGTVVVQQLMSVMISKHDCLFPKDAELQSKPQDGVSNNNEIQKKATMGLLQNKENNNTKDSPSRQCSWDKSESPQRSSMNNGSPTALSGSKTNSPKNSVHKLDVSRSPPLMVKKNPAFNKGSGIVTNGSFSSSNAEGLEKTQTTPNGSLQARRSSSLKVSGTKMGTHSVQNGTVRMGILNSDTLGNPTNVRNMSWLPNGYVTLRDNKQKEQAGELGQHNRLSTYDNVHQQFSMMNLDDKQSIDSATWSTSSCEISLPENSNSCRSSTTTCPEQDFFGGNFEDPVLDGPPQDDLSHPRDYESKSDHRSVGGRSSRATSSSDNSETFVGNSSSNHSALHSLVSSLKQEMTKQKIEYESRIKSLEQRNLTLETEMMSLHDELDQERKKFTMIEIKMRNAERAKEDAEKRNDMLQKEMEQFFSTFGELTVEPRRTERGNTIWIQ
For the protein B2, the “fold increase in Rho activity in HUVECs expressing the R82A mutant, compared to empty vector” value is 2.6±0.7 fold increase (n=4 experiments) in Rho activity.
